Measurements reported in PMC4227767, “Dye label interference with RNA modification reveals 5-fluorouridine as non-covalent inhibitor”.

T1: TruB (tmTruB), tRNA pseudouridine-55 synthase (Thermotoga maritima, UniProt Q9WZW0 1-309)
T1 sequence: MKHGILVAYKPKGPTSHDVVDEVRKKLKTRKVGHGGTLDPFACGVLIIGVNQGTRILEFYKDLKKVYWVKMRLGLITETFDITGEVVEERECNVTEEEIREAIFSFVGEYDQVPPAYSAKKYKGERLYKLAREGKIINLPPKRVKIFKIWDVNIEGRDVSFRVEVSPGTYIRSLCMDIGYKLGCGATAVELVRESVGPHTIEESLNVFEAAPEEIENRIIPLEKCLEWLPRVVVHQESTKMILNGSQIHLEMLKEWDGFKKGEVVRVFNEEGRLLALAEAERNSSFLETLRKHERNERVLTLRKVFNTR


How the values were obtained:
[1] = molecular target: T1, TruB (tmTruB), tRNA pseudouridine-55 …; experiment: fluorescence titration (spectral shifts, lifetime/anisotropy); average over three titration curves; 200 nM tRNA; 1x MST buffer (composition not in material); tRNA folded 4 min 75 C in water then cooled in buffer; MST at 25 C, 50 nM tRNA; fluorescence at 200 nM tRNA; SDS-PAGE complexes formed at 25 or 70 C; conditions: protein: recombinant, tRNA fold
[2] = molecular target: T1, TruB (tmTruB), tRNA pseudouridine-55 …; experiment: MST; one of three runs 1 month apart; unit cut off in the material (nM assumed); 1x MST buffer (composition not in material); tRNA folded 4 min 75 C in water then cooled in buffer; MST at 25 C, 50 nM tRNA; fluorescence at 200 nM tRNA; SDS-PAGE complexes formed at 25 or 70 C; conditions: protein: recombinant; label: Cy5 at U33 (internal); tRNA fold

Row | Binder | Kd ([1]; label: Cy5 at C49 (internal)) [nM] | Kd ([1]; label: Cy5 at U33 (internal)) [nM] | Kd [2] [nM]
1 | C49-5FU55-tRNA (Cy5 at C49) (structured_RNA, 5-fluorouridine at position 55; 5-aminohexyl-3-acrylimido-deoxycytidine at C49) RNA: GCGGAUUUAGCUCAGUUGGGAGAGCGCCAGACUGAAGAUCUGGAGGUCCUGUGUUCGAUCCACAGAAUUCGCACCA | 124 |  | 
2 | U33-5FU55-tRNA (Cy5 at U33) (structured_RNA, 5-fluorouridine at position 55; 5-aminohexyl-3-acrylimido-uridine at U33) RNA: GCGGAUUUAGCUCAGUUGGGAGAGCGCCAGACUGAAGAUCUGGAGGUCCUGUGUUCGAUCCACAGAAUUCGCACCA |  | 3.7 | 37.3
3 | C49-U55-tRNA (Cy5 at C49) (structured_RNA, 5-aminohexyl-3-acrylimido-deoxycytidine at C49) RNA: GCGGAUUUAGCUCAGUUGGGAGAGCGCCAGACUGAAGAUCUGGAGGUCCUGUGUUCGAUCCACAGAAUUCGCACCA | 226 |  | 
